B1: Q8BK48 (protein, UniProt Q8BK48 1-559, looked up)
chain: MPLYKLLGWLNAVACGVLLLVLHVQGQDSASPIRNTHTGQVRGSLVHVKDTDIAVHTFLGIPFAKPPVGPLRFAPPEAPEPWSGVRDGTSHPNMCLQNDNLMGSEDLKMMNLILPPISMSEDCLYLNIYVPAHAHEGSNLPVMVWIHGGALTVGMASMYDGSMLAATEDVVVVAIQYRLGVLGFFSTGDQHAKGNWGYLDQVAALRWVQQNIVHFGGNPDRVTIFGESAGGTSVSSHVVSPMSQGLFHGAIMESGVAVLPDLISSSSEMVHRIVANLSGCAAVNSETLMCCLRGKNEAEMLAINKVFKIIPGVVDGEFLPKHPQELMASKDFHPVPSIIGINNDEYGWILPTIMDPAQKIEEITRKTLPAVLKSTALKMMLPPECGDLLMEEYMGDTEDPETLQAQFREMKGDFMFVIPALQVAHFQRSHAPVYFYEFQHRPSFFKDFRPPYVKADHGDEIFLVFGYQFGNIKLPYTEEEEQLSRRIMKYWANFARHGNPNSEGLPYWPVMDHDEQYLQLDIQPSVGRALKARRLQFWTKTLPQKIQELKGSQERHKEL
modifications: full-length
B2: Q80XU3 (protein, UniProt Q80XU3 1-234, looked up)
chain: MSRPVRNRKVVDYSQFQESDDADEDYGRDSGPPAKKIRSSPREAKNKRRSGKNSQEDSEDSEEKDVKTKKDDSHSAEDSEDEKDDHKNVRQQRQAASKAASKQREMLLEDVGSEEEPEEDDEAPFQEKDSGSDEDFLMEDDDDSDYGSSKKKNKKMVKKSKPERKEKKMPKPRLKATVTPSPVKGKAKVGRPTASKKSKEKTPSPKEEDEEAESPPEKKSGDEGSEDEASSGED
modifications: full-length
B3: Q80Z37 (protein, UniProt Q80Z37 1-1033, looked up)
chain: MGSQPPPPGSPLSREEGEAPPLVPAEEGRRRSRRVRLRGSCRHRPSLLSRRELASNGPAVPATASSEIMASAAKEFKMDNFSPKAGTSKLQQTVPADASPDSKCPICLDRFDNVSYLDRCLHKFCFRCVQEWSKNKAECPLCKQPFDSIFHSVRAEDDFKEYVLRPSYNGSFTNPEVRRFRYRTTMTRERSASLYSPSSTVSRRTTTPPDSGVLFEGLGISTRPRDVDIPQFMRQMALRGPTTTDERSLRKIQEQDIINFRRTLYRAGVRVRSIEDGGRYRDISAEFFRRNPACLHRLVPWLKRELTVLFGAHGSLVNIVQHIIMSNVTRYDLESQAFVSDLRPFLLNRTEHFIHEFISFARSPFNMAAFDQHANYDCPPSSEEGSRSDSSVITISPDEAETQELDMNASTVRQAPWDDETPGPSYSSSEQVHVGVSSLLNSSDSSDEELVSGGTTSQIQGVQTNDDVNNDSDSSSDNCVIVGFVKPLAERTPELVELSSDSEELGPYEKVETVKTQEQEQSYSSGDSDVSRASSPRSVLGKDEQMSKSHCDSDTRISSKKEEKRSTSLPAPRDSSSTRGDRVCSPYNHRHRKGGRSRSSDSRSQSRSGHDPRNHRKHGKKRLRNKRSRSRESSSRPRARKDKKRSRTRDSSWSRRSQTLSLSSGSTSRSRSRSSDHGKRRSRSRNRDRYYLRNNYGSKYKWEYTYYSRNKDRDGYESSYRRRTLSRAHYSRQSSSPEFRIQSFSERTNARKKNHSERKYYYYERRRSRSVSSNRSRTTSAGPDRVRNEKPGGKRKYKTRHLEGTSEEAQPAREFTSKGKDSHYQKSKLDGSYKNESDSFSDSRSSDRETKHKRRRRRTRSLSVEIVYEGKATDTSKHHKKKKKKHKKKHKKHHGDNTSRSPVVITIDSDSDGESEVKAGIECSNGSLPQPIQDGAFETKDVVTIEDELGVLDKDCDVTALADDLSTSQTVENCDSPAVPVEQTLDVREESTFASDLESQSSNVSIQAEPSRPVPSPRTSLSSVSPGRDCDVS
modifications: full-length
B4: Q8BPQ7 (protein, UniProt Q8BPQ7 1-1093, looked up)
chain: MASVPAEAETRQRLLRTVKKEVKQIMEEAVTRKFVHEDSSHIISFCAAVEACVLHGLRRRAAGFLRSNKIAALFMKVGKGFPPAEELSRKVQELEQLIESARNQIQGLQENVRKLPKLPNLSPLAIKHLWIRTALFGRVLDKIVHYLVENSSKYYEKEALLMDPVDGPILASLLVGPCALEYTKMKTADHFWTDPSADELVQRHRIHSSHLRQDSPTKRPALCIQKRHSSGSMDDRPSISARDYVESLHQDSRATLLYGKNNVLVQPRDDMEAVPGYLSLHQTADVMTLKWTPNQLMNGSVGDLDYEKSVYWDYAVTIRLEEIVYLHCHQQVDSGGTVVLVSQDGIQRPPFRFPKGGHLLQFLSCLENGLLPHGQLDPPLWSQRGKGKVFPKLRKRSPQGSSESTSSDKEDDEATDYVFRIIYPGTQSEFVPQDLMDVSMNNLPPLWQPSPRKSSCSSCSQSGSADGGSTNGCNHERAPLKLLCDNMKYQILSRAFYGWLAYCRHLSTVRTHLSALVNHMIVSPDLPCDAGQGLTASIWEKYIQDSTTYPEQELLRLIYYGGVQPEIRRAVWPFLLGHYQFGMTEMERKEVDEQIHACYAQTMSEWLGCEAIVRQRERESHAAALAKCSSGASLDSHLHRMLHRDSTISNESSQSCSSGRQNLRLQSDSSSSTQVFESVDEVEQTEAEGRSEEKHPKIPNGNPANGTCSPDSGHPSSHNFSSGLSEHSEPSLSTEDSVLDAQRSLPAVFRPGDSSVEDGQSSEATTSRDEAPREELAVQDSLESDLLANESLEEFMSIPGSLDVALPEKDGAVMDGWPGEADKPSRADSEDNLSEEPEMESLFPALASLAVTSSANNEASPVSSSGVTYSPELLDLYTVNLHRIEKDVQRCDRSYWYFTAANLEKLRNIMCSYIWQHIEIGYVQGMCDLLAPLLVILDDEALAFSCFTELMKRMNQNFPHGGAMDTHFANMRSLIQILDSELFELMHQNGDYTHFYFCYRWFLLDFKRELVYDDVFSVWETIWAAKHVSSAHYVLFIALALVEVYRDIILENNMDFTDIIKFFNEMAERHNAKQILQLARDLVHKVQILIENK
modifications: full-length
B5: Q8BM96 (protein, UniProt Q8BM96 1-785, looked up)
chain: MRSCRSCNVRVLVAIVCGLLTGIVLGLGIWRMVIRINRGIFVPVPSIPVQFCRNGGTWQNGRCICTEEWKGLRCTIANFCENSTDGEFTFGSIPVGRYGPSLQTCEPGTLNAGSPKATRLCNVSEFGNIELQNVTKGSCNINLQTLEIQINNQTASAENISREAQVLTADASKLTAQNITSATTVVGQIFGKANNESQAKKTAIATVSQILDASEDVFQKAAEMDNSKSFSNLIKQMENYSYSQGDQTVVEPNIAIQSVTRDDNSGPSVLFSVQKGSSNSLVSGRILINKTANGLNPDGQTELQILLNTGENRKSCGFMVYQNHKLFQSKTFTATSDFSQKIISSKINESEQQRQNKVSVEMVFNPTYDKRELRLHSYACVYWNFLINDWDTQGCQKTGNTTEFLRCNCSHTTNFAVLMSFKKDYKYPKSLDILSNIGCALSIAGLALTILFQILTRKIRKTSVTWVLVSLCSSMLIFNLLFVFGIENSNKNLKTSDSDINVKPENNKIPESDTIETPNPSCTAIAALLHYFLLVTFTWNGLSATQLYFLLIRTMKPLPRHFIIFISLVGWGVPAIIVGVTIGSIYALSGNKRYWELDYRQEEICWLAVPKDNDYARSPLLWSFIIPVTIILITNITIFVIITVKVLWKNNQNLTSTKKVSSLKKVFSTLSIAVVFGVTWILAYAMLISNDDIRIVFSYIFCLFNTTQGLQIFILYTVRTKVFQSEASKILKSLSSSFDRTKPMPSITPLKLRVRMYNMLRSLPSLNERFRLLEPSGMTEETSLS
modifications: full-length

Tested on: intracellular proteome of ENR+CD and ENR organoids
Assay: LC-MS/MS TMT proteomics of ENR+CD versus ENR organoids
Type: cell-based, C57BL/6 mice
Settings: ENR+CD versus ENR organoids, sample pairs in aggregate (n=4, 2 technical replicates from two biological donors)

Molecule	Average logFC
B1	−1.69
B2	−1.313
B3	1.193
B4	1.34
B5	−1.142

Same assay, conditions: protein abundance ratio ENR+CD versus ENR organoids, sample pair M1-1; LC-MS/MS TMT proteomics

Molecule	M1-1 Log2 Median Normalized
B1	−1.646
B2	−1.892
B3	1.31
B4	1.5
B5	−0.895

Same assay, conditions: protein abundance ratio ENR+CD versus ENR organoids, sample pair M1-2; LC-MS/MS TMT proteomics

Molecule	M1-2 Log2 Median Normalized
B1	−1.907
B2	−0.72
B3	0.914
B4	0.707
B5	−1.193

Same assay, conditions: protein abundance ratio ENR+CD versus ENR organoids, sample pair M2-1; LC-MS/MS TMT proteomics

Molecule	M2-1 Log2 Median Normalized
B1	−2.1625
B2	−1.5225
B3	1.7665
B4	1.4015
B5	−1.2285

Same assay, conditions: protein abundance ratio ENR+CD versus ENR organoids, sample pair M2-2; LC-MS/MS TMT proteomics

Molecule	M2-2 Log2 Median Normalized
B1	−1.046
B2	−1.116
B3	0.782
B4	1.339
B5	−1.142

Same assay, conditions: up = enriched in ENR+CD, down = enriched in ENR; FDR<0.05 and log fold change cut-off

Molecule	change
B1	down
B2	down
B3	up
B4	up
B5	down

— patent US11994512B2, “Single-cell genomic methods to generate ex vivo cell systems that recapitulate in vivo biology with improved fidelity” (Massachusetts Institute of Technology, priority 2018, dated 2024)
